Measurements from the nanobody polyreactivity screen of Harvey et al. (2022).

Assay: yeast display, Sf9 membrane polyspecificity reagent, FACS + sequencing; frameworks hold sequencing errors
How it was run: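 After 36–48 hours of galactose induction, yeast (Saccharomyces cerevisiae BJ5465) displaying a synthetic nanobody library were stained at 4 °C for 1 hour with 10% biotinylated, detergent-solubilized Sf9 membrane reagent. Streptavidin microbeads enriched the stained cells before FACS sorting into low and high (top ~1%) gates on anti-HA and streptavidin fluorescence. Each clone's polyreactivity label reflects its gate of origin.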

Sequence	polyreactivity (PSR sort gate)
QVQLVESGGGVVQAGGTLRLSCAASGSTFPKYAMGWYRQAPGKERELVAAISLSGVRTYYADSVKGRFTISRDNAKNTVYLQMTSLKPEDTAVYYCNAVFDRYPYRYDYWGQGTQVTVSS	high polyreactivity
QVQLQESGGGLVQAGGSLRLSCAASGSISILENMGWYRQPPGLGRDFVAGIGYGSSTYYADSVKGRFTISRDNAKNTVYQQMNSLKPEDTTVYYCAVVEYQCVTYLYWGQGSQVTVSS	low polyreactivity
QVQLVESGGGLVQAGGSLRLSCAASGFIFDFYAMGWYRQAPGKERELVADITGGGSTYYADSVKGRFTISRDNAKNTVYLQMNSLKPEDTAVYYCAASYGVYWYSFWYHVAWYDYWGQGTQVTVSS	low polyreactivity
QVQLVESGGGLVQAGGSLRLSCAASGNTFYGYAMGWYRQAPGKERELVASITLSGDSTYYADSVKGRFTISRDNAKNTVYLQMNSLKPEDTAVYSCAGVYTYPLGYYHYTYDYWGQGTQVTVSS	low polyreactivity
QVQLVESGGGLVQAGGSLRLSCAASGRTFDSYAMGWYRQAPGKERELVAAIYADSVKGRFTISRDNAKNTVYLQMNSLKPEDTAVYYCAAETYSGQTYLGEYDYWGQGTQVTVSS	low polyreactivity
QVQLVESGGGLVQAGGSLRLSCAASGFTFDYYVMGWYIQAPGKERELVAAITFSATSTYYADSVKGRYTISRDNAKNTVYLQMNSLNPEDTAVYYCAAVICNWQYQYYYWGQGTKVTVSS	low polyreactivity
QVQLVESGGGLVQAGGSLRLSCAASGSIFEWYAMGWYRQAPGKERELVAAINSGGSTYYADSVQGRFTISRDNAKNTVYLQMNSLKPEDTAVYYCNYDTLLQDRLGDWYDYDYWGQGTQVTVSS	low polyreactivity
QVQLVESVGGLVQAGGSLRLSCAASGYIFGYNAMGWYRQAPGKERELVAAISRSAGRTYYADSVKGRFTISRDNAKNTVYLQMNSLKPEDTAVYYCAAQSYWLGYEYWGQGTQVTVSS	high polyreactivity
QVQLVESGGGLVQAGGSLRLSCAASGFTFVAYAMGWYRQAPGKERELVAAISRRGGTTYYADSVKGRFTISRDNEKNTVYLQMNSLKPEDTAVYYCNARSNFAFYRGNWAYDYWGQGTQVTVSS	high polyreactivity
QVQLVESGGGLVQAGGSLRLSCAASGGTFGYNAMGWYRQAPGKERELVAAIRNCGSTYYADSVKGRFTISRDNAKNTVYLQMNSLKQEDTAVYYCAAKVYRKLNYWVQGTQVTVSS	high polyreactivity
QVQLVESGGGLVQAGGSLRLSCAASGRTFVFYAMGWYIQAPGKERELVASISDGDRTNYADSVKGRFTISRDNAKNTVYLQMNSLKPEDTAVYYCAADREFWWEVVYTYEYYYWGQGTQVTVSS	low polyreactivity
QDQLVESGGGLVQAGGSLRLSCAASGRTFGTYAMGWYRQAPGKERELVAAISSSGGRTYYADSVKGRFTISRDNAKNTVYVLMHSLKPEVTAVYYFAKSRYATQTDYNYWGQGTQVTVSS	high polyreactivity
QVQLVESGGGLVQAGGSLRLSCAASGFTLVKYVMVWYMQAPGKEREFVATIRRRGGNTYYADSVKGRFTISRDNAKNTVYLQMNSLKPEDTAVYYCAAKKRSDLRTGDMEYWGQGTQVTVSS	high polyreactivity
QVQLVESGGGLVQAGGSHRLSCAASGSIFWSYAMGWYRQAPGKARELVASISRRGGSTSYADSVKGRFTISRDNAKNTVYLQMNSLKPEDTAVYYCNAYGRQNHYYWGQGTQVTVSS	high polyreactivity
QVQLVESRGGLVQAGGSLRLSSAASGFTFRYYLMGWYRQAPRKERELVAAITWSGGTTNYADSVKGRFTISRDNAKNSVYLQMNSLKPEDTAVYYCNAARSRGANRVPPYRLYYWGQGTQVTVSS	low polyreactivity
QVQLVESGGGLVQAGGSLRLSCAASGSTFWGYALGWYRQAPGKERELVASIRRGASTTYADSVKGRFTISRDNAKNTVYLQMNSLKPEDSAVYYCAKPGYFRSHDYWGQGTQVTVSS	low polyreactivity
QVQLVESGGGLVQAGGSLRLSCAASGSTFTRYAMGWYRQAPGKEREFVAGISWRGGSTYYADSVKGRFTISRDNAKNTVYFQMNSLKPEDTAVYYCAARSFSNIGYHGYGYWGQGTQVTVSW	high polyreactivity
QVQLVESGGGLVQAGGSLRLSCAASGSIFVTYAMGSYRQAPGKERELVAAITSIGGTTYYSDSVKGRFTISRDNAKNTVYLQMNSLKPEDTAVYYCAVDGGEFSSYGYWGQGTEVTVSS	low polyreactivity
QVHLVESGGGLVQAGGSLRLSCAASGLIFGKNAMGWYRQPPGKERELVAAISSGESTYADSVKWRFTISRDNAKNTVYLQMNSLKPEDTAVYYCNAEVLRESYDRHPTTDYYWGQGTQVTVSS	low polyreactivity
QVQIVESGGGLVQAGGSLRLSCAASGSIFTYNAMGWYRQAPGKERELVAAISYSGVRTYYADSVKGRFTISRDNAKNTVYLQMNRLKPVDTAVYYCNTRYPYSVLKYGYWGQGTQVTVSS	high polyreactivity
QVLLEDSGGGLVQAGARLRLICAASGRIHVNAMGWYRQAPGKERELVASINIGDGTHYADSVKGRFTISRANAKNTVYLQLNSLISEVTAVYYCAADSRSSNACYDYWGQGTQVSVSS	low polyreactivity
QVQLVESGGGLVQAGGSLRLSCAASGSTLYRYAMGWYRQAPGKERELVAAISSAGSTHYADSVKGRFTISRDNAKNTVYLQMNSLKPEDTAVYYCAAKRYLKYGYWGQGTQVTVSS	high polyreactivity

Sequence	polyreactivity (PSR sort gate)
QVQLVESGGGLVQAGGSLRLSCAASGSTFGVNAMGWYRQAPGKERELVASISSGGGTYYADSVKGRFTISRDNAKNTVYLQMNSLKPEDTAVYYCAAVYYWYDSYAGYDYWGQGTQVTVSS	low polyreactivity
QVQLVESGGGLVQAGGSLRLSCAASGGTFPRNAMGWYRQAPGKERELVAAINQSGGRTYYADSVKGRFTISRDNAKNTVYLQLNSLKPEDTAVYYCAARVTYYRTYRGRQYGYWGQGTQVTVSS	high polyreactivity
QVQLVESGGGLVQAGGSLRLSCAASGSTFKKYVMGWYRQAPGKERELVAAISSTGRTNYADSVKGRFTISRDNAKNTVYLQMNSLKPEDTAVYYCAKRYRKYSLGPPGNDYWGQGTQVTVSS	high polyreactivity
QVQLVDSGGGLVQAGGILRLSCAASGRIFYYNTMGWSRQAPGKERELVARITYSGGRTYYADSVKGRFTISRDNAKNTVYLQMNSLKPEDTAVYYCAARRRTFYATSSAINGYDYWGQGTQVTVSS	high polyreactivity
QVQLVESGGGLVQAGGSLRLSCAASGFTFFHYAMGWYRQAPGKERELVAAINTRGSRTYYADSVKGRFTISRDNAKNTVYLQMNSLKPEDTAVYYCAADSVQVYAWQYYYWGQGTQVTVSS	high polyreactivity
QVQLVESGGGLVQAGGSLRLSCAASGSTYYIYAMGWYRQAPGKEREMVAAISDNGGTTYYADSVKGRFTISRDNAKNTVYLQMNSLKPEDTAVYYCNAEGWWYWYYGSYDYWGQGTQVTVSS	high polyreactivity
QVQLVESGGGLVQAGGSLRLSCAASGFILDRYAMGWYRQAPGKERELVASITSGGSTNYADSVKGRFTISRDNAKNTVYLQMNSLKPEDTAVYYCAAYPWRYWNHEYNYWGQGTQVTVSS	high polyreactivity
QVQLVESGGGLVQAGGSLRLSCAASGRIFDYYAMGWYRQEAGKERELVARITSGGTTNYADSVKGRFTISRDNAKNTVYLQMNSLKPEDTAVYYCNAQDYSDPLQMDYWGQCTQVTVSS	low polyreactivity
QVQLVESGGGLVQAGGSLRLSCAASGLNFYWYAMGWYRQAPGKERELFAAINWSGGRTHYADSVKGRFTMSRDNANNTVYFQMNCLKPEDTAVYYCAASPYWFTRYYPKTRETMDYWGQGTQVTVST	high polyreactivity
QVQLVESGGGLVQAGGSLRLSCAASGFTFDSYAMGWYRQAPGKERELVADITWDGGSTYYADSVKGRFTISRDNAKNTVYLQMKSLKPEDTAVYYCAADFGTFSIDVYSWMDYWGQGTQATVSS	low polyreactivity
QVQLVESGGGLVQAGGSLRLSCDASGSTFPSYTMGWSRQAPGKERELVAVIRLSSGSTYYADSVKGRFTISRDNAKNTVYLQMNSLKPEDTAVYYCNTGRYHYFPNYWYDYWGQGTQVTVSS	low polyreactivity
QVQLVESGGGLVQAGGSLRLSCAASGFTFWRYAMGWYRQAPGKERELVAAISWRGSSTYYADSVKGRFTISRDNAKNTVYLQMNSLKPEDSAVYYCAARYITFNGYGYGYWGQGTQVTVSS	high polyreactivity
QLQLVESGGGLVQAGGSLRVSCAASGSIFLRYAMGWYRQAAGKERELVAAITSSGGSTYYADSVKGRFTISRDNAKNTVYLQMNSLKPEDTAVYYCNRYSYLFPYYWKYDYWGQGTQVTVSS	high polyreactivity
QVQLVESGGGLVQAGGSLRLSCAASGSTFYGYAMGWYRQAPGKERELVAAITYSGGSTYYADSVKGRFTISRDNAKNTVYLQMNSLKPEDTAVYYCAATWLWFRRYRYDYWGQGTQVTVSS	high polyreactivity
QVQLVESGAGLVQAGGRIRLTCAASRSILRGYAMGWYRQAPGKERELVAAITWNGGSTYYADSVKGRFTISRDNANNTVYLHMISLKPEDTAVYYFNRAIGPYSYPDNYWGQGTQVTVSS	high polyreactivity
QVQLVESGGGLVQAGGSLRLSCAASGFIFRYYAMGRYRPAPGKERELVAAISKRGGGTYYADSVKGRFTISRDNAKNTVYLQMNSLKPEDTAVYYCKKDGGYGTGSSREYDSWGQGTQVTVSS	high polyreactivity
QVQLVESGGGLVQAGGSLRLSCAASGSTYSTNAMGWYRQAPGKERELVAAISRSGGSTYYADTVKRRFTISRDNAKITVYLQMNRLKPEDTAVYYCARYSFRGTNVRYDYWGQGTQVTVSS	high polyreactivity
QVQLQESGGGLVEAGGSLRLSCAASGTISYAPHMGWYRQAPGKERELVAGITIGGTTNYADSVKGRFTISRDNAKNTVYLQMISLSPGDTALYYCAAHYDQYTPFYYWGQGSQVTVSS	low polyreactivity
QVQLVESGGGLVQAGGSLRLSCAASGSTFWYYVMGWYRQAPGKERELVAAISTRGDSTYYADSVKGRFTISRDNAKITVYFQMNSLKPEDTAVFDCAKSRQYSGRVRFDYWGKGTQVTVSS	low polyreactivity
QVQLVESGGGLVQAGGSLRLSCAASGSTFQYYPMGWYRQAPGKERELVAAISYRGSTYYADSVKGRFTISRDNAKNTVYLQMNRLKPEDTSVYYCAKGGTTWYWSGYRSIYFRYDYWGQGTQVTVSS	high polyreactivity
QVQLVESGGGLVQAGGSLRLSCAASGSTFFGNAMGWYRQAPGKERELVAAITTGSGRTYYADSVKGRFTISRDNAKNTVYLQMNSLKPEDTAVYYCAARFSERVYVVPFGYWGQGTQVTVSS	high polyreactivity
